Data taken from patent publication US20150147342A1 (published 2015).

Key:
[1] = target: T1, Dimeric fibrinogen-like domain of human Ang-2 conjugated to human IgG1 (human); assay: SPR, hIgG1 antibody captured, room temp
T1 construct: also called Dimeric Human Ang-2FD; Human Ang-2FD-hFc

[2] = target: T2, Dimeric fibrinogen-like domain of mouse (Mus musculus) Ang-2 conjugated to human IgG1 (mouse (Mus musculus)); assay: SPR, hIgG1 antibody captured, room temp
T2 construct: also called Dimeric Mouse Ang-2FD; Mouse Ang-2FD-hFc

[3] = target: T3, Dimeric fibrinogen-like domain of monkey (Macca fascicularis) Ang-2 conjugated to human IgG1 (monkey (Macca fascicularis)); assay: SPR, hIgG1 antibody captured, room temp
T3 construct: also called Dimeric Monkey Ang-2FD; Monkey Ang-2FD-hFc

[4] = target: T2, Dimeric fibrinogen-like domain of mouse …; assay: SPR, antibody captured on anti-human kappa, 25 C
Method: (§1) Additional binding experiments were conducted using selected anti-Ang-2 antibodies at two different temperatures to further assess cross-species affinity. Each selected antibody or control construct was captured at a flow rate of 40 μL/min for 1 minute on a goat anti-human kappa polyclonal antibody surface created through direct chemical coupling to a BIACORE™ chip to form a captured antibody surface.

[5] = target: T3, Dimeric fibrinogen-like domain of …; assay: SPR, antibody captured on anti-human kappa, 25 C
Method: as §1

[6] = target: T2, Dimeric fibrinogen-like domain of mouse …; assay: SPR, antibody captured on anti-human kappa, 37 C
Method: as §1

[7] = target: T3, Dimeric fibrinogen-like domain of …; assay: SPR, antibody captured on anti-human kappa, 37 C
Method: as §1

T2 sequence (chain, as listed by the source limits assumed): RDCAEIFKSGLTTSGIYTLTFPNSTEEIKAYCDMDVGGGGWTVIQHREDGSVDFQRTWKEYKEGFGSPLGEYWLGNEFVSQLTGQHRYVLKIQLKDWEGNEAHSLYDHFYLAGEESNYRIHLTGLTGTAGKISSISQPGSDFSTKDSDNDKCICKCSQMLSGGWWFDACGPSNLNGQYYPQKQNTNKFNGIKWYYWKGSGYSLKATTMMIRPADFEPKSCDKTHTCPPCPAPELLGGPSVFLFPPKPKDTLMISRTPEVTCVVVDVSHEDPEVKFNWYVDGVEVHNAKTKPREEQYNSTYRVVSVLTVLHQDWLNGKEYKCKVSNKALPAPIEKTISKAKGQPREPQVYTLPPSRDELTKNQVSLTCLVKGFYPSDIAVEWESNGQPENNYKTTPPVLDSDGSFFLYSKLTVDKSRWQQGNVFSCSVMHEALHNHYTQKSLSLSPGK
T3 sequence (chain, as listed by the source limits assumed): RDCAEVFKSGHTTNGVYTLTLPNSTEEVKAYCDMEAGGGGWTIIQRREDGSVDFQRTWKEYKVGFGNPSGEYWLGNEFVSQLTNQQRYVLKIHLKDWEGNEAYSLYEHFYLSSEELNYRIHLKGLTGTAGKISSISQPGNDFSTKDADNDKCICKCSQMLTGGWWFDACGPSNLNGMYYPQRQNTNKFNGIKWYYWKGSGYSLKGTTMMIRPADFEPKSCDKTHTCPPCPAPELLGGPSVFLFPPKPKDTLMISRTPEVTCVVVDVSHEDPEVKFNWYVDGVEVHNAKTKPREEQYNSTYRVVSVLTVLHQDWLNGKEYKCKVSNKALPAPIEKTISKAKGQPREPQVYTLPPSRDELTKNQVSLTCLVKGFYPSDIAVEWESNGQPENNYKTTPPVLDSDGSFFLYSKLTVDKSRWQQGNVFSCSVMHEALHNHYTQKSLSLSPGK
T1 sequence (chain, as listed by the source limits assumed): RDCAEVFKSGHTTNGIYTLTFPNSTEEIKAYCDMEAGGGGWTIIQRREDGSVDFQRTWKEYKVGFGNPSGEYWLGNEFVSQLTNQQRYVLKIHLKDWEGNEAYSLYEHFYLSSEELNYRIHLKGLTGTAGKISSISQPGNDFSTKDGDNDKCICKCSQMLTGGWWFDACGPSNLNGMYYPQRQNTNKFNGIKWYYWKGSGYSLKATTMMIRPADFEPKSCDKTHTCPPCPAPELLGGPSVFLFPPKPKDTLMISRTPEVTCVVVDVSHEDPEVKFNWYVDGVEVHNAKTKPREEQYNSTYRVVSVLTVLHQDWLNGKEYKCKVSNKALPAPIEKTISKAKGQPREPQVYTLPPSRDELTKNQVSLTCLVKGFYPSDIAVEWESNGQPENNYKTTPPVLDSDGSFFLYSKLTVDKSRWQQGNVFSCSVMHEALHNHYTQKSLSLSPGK

- Kd [1]: 0.114 nM
- T1/2 [1]: 127 min
- T1/2 [2]: 115 min
- Kd [3]: 0.346 nM
- T1/2 [3]: 164 min
- Kd [4]: 0.385 nM
- T1/2 [4]: 33 min
- Kd [5]: 0.244 nM
- T1/2 [5]: 24 min
- Kd [6]: 0.215 nM
- T1/2 [6]: 26 min
- Kd [7]: 0.32 nM
- T1/2 [7]: 11 min
B1: H1H744N (antibody, V domains shown)
VH: QVQLVQSGVEVKKPGASVKVSCKTSGYTFSNNGFSWVRQAPGQGLEWLGWISGYNGNTNYAQKFQGRVTMTTDTSTSTAYMELRTLRSDDTAVYYCARDQDYSNFHWLDPWGQGTLVTVAS
VL: DIQMTQSPSSVSASVGDRVIITCRASQGLSSWLAWYQQKPGTAPKLLIHSASSLQTGVPSRFSGSGSGTEFALTINSLQPEDFGTYYCQQANSFPLTFGGGTRVEIK
